Experimental data reported in publication PMC5596431 (Cell Death and Differentiation, 2017).

Target: BiP (binding immunoglobulin protein), ER-resident chaperone (human (endogenous in H1299), UniProt P11021 19-654)
Assay: proximity ligation

Chain of BiP (binding immunoglobulin protein), ER-resident chaperone (P11021 19-654): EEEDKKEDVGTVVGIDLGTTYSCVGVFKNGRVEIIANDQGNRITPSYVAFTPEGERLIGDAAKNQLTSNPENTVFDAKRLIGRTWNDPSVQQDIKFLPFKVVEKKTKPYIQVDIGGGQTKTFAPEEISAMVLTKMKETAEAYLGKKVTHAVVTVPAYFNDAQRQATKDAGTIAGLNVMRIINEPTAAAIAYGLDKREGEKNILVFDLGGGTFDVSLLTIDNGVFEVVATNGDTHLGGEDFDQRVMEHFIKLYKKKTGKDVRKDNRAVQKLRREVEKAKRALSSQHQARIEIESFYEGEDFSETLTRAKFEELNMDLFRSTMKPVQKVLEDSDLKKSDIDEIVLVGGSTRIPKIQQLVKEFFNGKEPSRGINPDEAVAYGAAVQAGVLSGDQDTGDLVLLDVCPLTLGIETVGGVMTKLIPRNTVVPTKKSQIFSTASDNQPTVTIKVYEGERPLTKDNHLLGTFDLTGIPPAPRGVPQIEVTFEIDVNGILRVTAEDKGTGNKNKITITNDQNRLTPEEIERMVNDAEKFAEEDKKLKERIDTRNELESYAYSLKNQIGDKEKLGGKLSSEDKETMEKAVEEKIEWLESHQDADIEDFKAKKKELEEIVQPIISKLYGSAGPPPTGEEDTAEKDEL

B1: BIK, BH3-only pro-apoptotic member of the BCL-2 family (natural protein, human (endogenous in H1299), UniProt Q13323 1-160, looked up)
chain: MSEVRPLSRDILMETLLYEQLLEPPTMEVLGMTDSEEDLDPMEDFDSLECMEGSDALALRLACIGDEMDVSLRAPRLAQLSEVAMHSLGLAFIYDQTEDIRDVLRSFMDGFTTLKENIMRFWRSPNPGSWVSCEQVLLALLLLLALLLPLLSGGLHLLLK
For B1, the “ratio of PLA BIK/BiP complexes in p53-positive/p53-negative cells, DMSO” value was 1.3 ratio and the “ratio of PLA BIK/BiP complexes in p53-positive/p53-negative cells, thapsigargin” value was 0.4 ratio.
